The results in this text go back to article PMC10681173.

The target of assay [1] is N29D/A53D RMM double mutant fused to GFP10 or GFP11 (dm-RMM-10/11). Description: tripartite GFP (tGFP) reconstitution, in-cell fluorescence Fmax. Particulars: data collected over 16 h, induction from the culture start, read off a plot.
In assay [2] the target is K26D RMM single mutant fused to GFP10 or GFP11 (sm-RMM-10/11). Described as above. Particulars: data collected over 16 h, induction from the culture start, read off a plot.
A further assay concerns the target His6-tagged RMM. Description: SEC; size-exclusion HPLC of TALON-purified samples.
Assay [3] concerns the target RMM BMC-H fused to GFP10 or GFP11 through the long linkers Lk30/27 (RMM-10/RMM-11, reference pair). Put plainly: split reporter (BiFC, NanoBiT); tripartite GFP in E. coli BL21(DE3) cells; single vector, POI-10 and POI-11 on a bicistronic mRNA under T7p, GFP1-9 independent; IPTG 10 uM from the start, 37°C; Fmax relative to the RMM reference.
In assay [4] the target is SUMO-RMM fused to GFP10 or GFP11 through the long linkers Lk30/27 (SUMO-RMM-GFP10, SUMO-RMM-GFP11). The assay is described as above.
Assay [5] has as its target RMM BMC-H fused to GFP10 or GFP11 through the long linkers Lk30/27 (RMM-10/RMM-11, reference pair). Put plainly: split reporter (BiFC, NanoBiT); tripartite GFP in E. coli BL21(DE3) cells; single vector, all three partners on a single tricistronic mRNA; IPTG 10 uM from the start, 37°C.
The target of assay [6] is RMM BMC-H with GFP10 or GFP11 at the N-terminus (N-ter tagged RMM-10/11). Description: split reporter (BiFC, NanoBiT); tripartite GFP in E. coli BL21(DE3) cells; single vector, POI-10 and POI-11 on a bicistronic mRNA under T7p, GFP1-9 independent; IPTG 10 uM from the start, 37°C; Fmax relative to the RMM reference.
Assay [7] addresses K26D/N29D/A53D RMM triple mutant fused to GFP10 or GFP11 (tm-RMM-10/11). Put plainly: tripartite GFP (tGFP) reconstitution, in-cell fluorescence Fmax. Conditions: data collected over 16 h, induction from the culture start, read off a plot.
In a further assay the target is SUMO-RMM-His6. Description: SEC; size-exclusion HPLC of TALON-purified samples. For orientation: SEC sorts molecules by how far they enter the pores of the column.
Where [8] appears, read: bicistron organization mode, parent: est. 103.
Setting [9] is: independent-transcript organization mode, Lk30/27 linkers, parent: est. 100.
The mark [10] stands for this setting: tricistron organization mode, parent: est. 97.

For “RMM BMC-H fused to GFP10 or GFP11 through the long linkers Lk30/27 (RMM-10/RMM-11, reference pair) N29D; A53D”, the figures for the percent of parent in assay [1] (setting [8]), in [1] (setting [9]) and in [1] (setting [10]) were 102%, 124% and 108%, respectively.

For the substance “RMM BMC-H fused to GFP10 or GFP11 through the long linkers Lk30/27 (RMM-10/RMM-11, reference pair) K26D”, the percent of parent in assay [2] (setting [8]) turned out to be 107%; in assay [2] (setting [9]), 119%.

As to His6-tagged RMM (natural protein), in the assay with His6-tagged RMM, the stoichiometry N (as a rule, a count of units in the complex or per binding partner) stood at 6.

For the substance “SUMO-RMM fused to GFP10 or GFP11 through the long linkers Lk30/27 (SUMO-RMM-GFP10, SUMO-RMM-GFP11)”, the Fmax as percent of the RMM pair reference in assay [3] and in [4] was 50 to 65% in each case.

With “RMM BMC-H fused to GFP10 or GFP11 through the long linkers Lk30/27 (RMM-10/RMM-11, reference pair) (natural protein)”, the ratio of RMM versus BWI signals stood at 2 fold in [5] and 15 fold in assay [3]. The Fmax as percent of the RMM pair reference in assay [4] is 115%.

“RMM BMC-H with GFP10 or GFP11 at the N-terminus (N-ter tagged RMM-10/11) (natural protein)”: in assay [6], the fold drop of fluorescence against C-ter tagged RMM amounted to 3 fold.

On to “RMM BMC-H fused to GFP10 or GFP11 through the long linkers Lk30/27 (RMM-10/RMM-11, reference pair) K26D; N29D; A53D”, for which the percent of parent in assay [7] (setting [8]) was 39%; in assay [7] (setting [9]) it was 41%; in assay [7] (setting [10]), 40%.

For SUMO-RMM-His6, the stoichiometry N with SUMO-RMM-His6 amounted to 12.
